# From the nanobody polyreactivity screen of Harvey et al. (2022)
# Experiment: yeast display, Sf9 membrane polyspecificity reagent, FACS + sequencing; frameworks hold sequencing errors
# Method in brief: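 Nanobodies came from a synthetic yeast display library in Saccharomyces cerevisiae BJ5465, induced with galactose for 36–48 hours and stained for 1 hour at 4 °C with 10% biotinylated, detergent-solubilized Sf9 membrane reagent. Cells were enriched on streptavidin microbeads and then FACS-sorted, with low and high (top ~1%) gates set on anti-HA fluorescence for expression and streptavidin fluorescence for reagent binding. Each polyreactivity label reflects the gate a clone came from. Genes were amplified by colony PCR, sequenced by MiSeq 2 × 250 and filtered by CDR length.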
row,Sequence,polyreactivity (PSR sort gate)
1,QVQLVESVGGLVQAGGSLRLSCAASGRTFVYNAMGWYRQAPGKEREFVGAISDGGGDTYYADSVKGRFTISRDNAKNTVFLQMNSLKPEVTAVYYCNVEWQQPGYAFDYCGQGTQVTVSS,low polyreactivity
2,QVQLVESVGGLVQAGGSLRLSCAASGRTFYFYAMGWYRQAPGKERELVASITSSGGNTYYADSVKGRFTISRDNAKNTVYLQMNSLKPEDTAVYYCAARWFPWLQWKRYVYWGQGTQVTVSS,low polyreactivity
3,QVQLVESVGGLVQAGGSLRLSCAASGRTFYTNAMGWYRQAPGKERELVAAITRGTSTSYADSVKGRFTISRDNAKNTVYLQMNSLKPEDTAVYYCAARGTQYSPSKSWFYYWGQGTQVTVSS,high polyreactivity
4,QVQLVESVGGLVQAGGSLRLSCAASGRTLLYNAMGWYRQAPGKERELVAAISRGGSTYYADSVNGRFTISRDNAKNTVYLQMNSLKPEDTAVYYCATGTWRYRYDYWGQGTQVTVSS,low polyreactivity
5,QVQLVESVGGLVQAGGSLRLSCAASGSIFGFYAMGWYRQAPGKERELDAVISSDASKNYADSVKGRFTISRDNAKNTVYLQMKSLKPEDTAVYYCNAVAYGYHFFSYYSVDYWGQGTQVTVSS,low polyreactivity
6,QVQLVESVGGLVQAGGSLRLSCAASGSIFKYYAMGWYRQEPGKERELVAAITIGGNTNYADSVKGRFTISRDNAKNTVYLQMNSLKPEDTAVYYCATGGYYSAIVYGGYDYWGQGTQVSVSS,low polyreactivity
7,QVQLVESVGGLVQAGGSLRLSCAASGSIFRLYALGWSRQAPGKERELVAAIRYSTGRTYSADSVKGRFTISRDNAKNTVYLQMNSLKPEDTAVYYCNARSWYIRGSQEYYYWGQGTQVTVSS,high polyreactivity
8,QVQLVESVGGLVQAGGSLRLSCAASGSIFVTNAMGWYRQAPGKERELVAAISSGGNTNYADSVKGRFTISRDNAKNTVYLQMNSRKPEDTAVYYCAKDPDKVDYVDMDYWGQGTQVTVSS,low polyreactivity
9,QVQLVESVGGLVQAGGSLRLSCAASGSIFWPNAMGWYRQAPGKERELVATISGSGGSTYYADSVKGRFTISRDNAKNTVYLQMNSLKPEDTAVYYCAADYRYGRYDYWGQGTQVTVSS,high polyreactivity
10,QVQLVESVGGLVQAGGSLRLSCAASGSIFWWYAMGLARQAPGKERELVAAISTRDGNTYYADSVKGRFTISRDNANNTVYLQMNSLKPEDTAVYYCAADYFRYYPYDYWGQGTQVTVSS,low polyreactivity
11,QVQLVESVGGLVQAGGSLRLSCAASGSIFYNNAMGWYRQAPGKDRELVAAIRSTGTRTYYADSVKGRFTISRDHAKNTVYLQMNSLKAEDTAVYYCAVGDYGLWSYDYWGQGTQLTVSS,low polyreactivity
12,QVQLVESVGGLVQAGGSLRLSCAASGSIRSYAIGWYRQAPGKERELVAAITRSGGSTYYADSVKGRFTISRDNAKNTVYLQMISLKPEDTAVYYCAARYTYSYPLFGSWGQGTQVTVSS,high polyreactivity
13,QVQLVESVGGLVQAGGSLRLSCAASGSTFAANAMGWYRQAPGKASELVAAITSVGTTYYADSVKGRFTISRDNGKNTVYLQMNSLKPEDTEVYYCNAEYGVWYDYLVVPYDYWGQGTQVTVSS,low polyreactivity
14,QVQLVESVGGLVQAGGSLRLSCAASGSTFAGYAMGWYRQAPGKERELVATITYSGGSTYYADSVKGRFTISRDNAKNTVYLQMNSLKPEDTEVYYCAKKASYWWGYEYWGQGTQVTVSS,low polyreactivity
15,QVQLVESVGGLVQAGGSLRLSCAASGSTFRYNAMGWYRQAPGKERELVATISSDGITYYADSVNGRFTISRDNAKNTVYLQMNRLKPEDTAVYYCAASYAGGFDYWGQGTQVTVSS,high polyreactivity
16,QVQLVESVGGLVQAGGSLRLSCAASGSTFVGNAMGWYRQAPGKERELVAAITGGGGSTYYADSVKGRFTISRDNAKNTVYLQMNSLKPEDTAVYYCAREYTYYPRWVGYDAYGEDYWGQGTQVTVSS,low polyreactivity
17,QVQLVESVGGLVQAGGSLRLSCAASGSTFYENTMGWYRQAPGKERELVAAISFRGGSRYYADSVKGRFTISRDNAKNTVYLQMNSLKPEDTAVYYCNADDSPVPSIRFDYWGEGTQVTVSS,low polyreactivity
18,QVQLVESVGGLVQAGGSLRLSCAASGSTFYFNAMGWYRQAPGKERELVAAIDWSGGSTYYADSVKGRFTISRDNAKNTVYLQMNSLKPEDTAVYYCAAPYHYYGNTVGYADYDYWGQGTQVTVSS,low polyreactivity
19,QVQLVESVGGLVQAGGSLRLSCAASGSTIRYYAIAWYRQAPGKERELVAAITSSGGRTYYADSVKGRFTISRDYAKNTVYLQMNSLKPEDTAVYYCAAYAYYHTGDDYWGQGTQVTVSS,high polyreactivity
20,QVQLVESVGGLVQAGGSLRLSCAASGSTLYQYAMGWYRQAPGKERELVAAITKSGGRTYYADSVKGRFTISRDNAKNTVYLQMNSLKPEDTAVYYCNVVRGSYSSGGDYWGQGTQVTVSS,high polyreactivity
21,QVQLVESVGGLVQAGGSLRLSCAASGYIFGHYTMRWYRQAPGKERELVAGISSGGITYYADSVKGRFTISRDNAKNTVYLQMNSLKPEDTAVYYCAVGTRVKYDYWGQGTQVTVSS,high polyreactivity

row,Sequence,polyreactivity (PSR sort gate)
1,QVQLVESVGGLVQAGGSLRLSCAASGYTFPDYAMGWYRQAPGKEREFVATISWSGTSTYYADSVKGRFTISRDNAKNTVYLQMNSLKPEDTAVDYCNASAYYPPSSSRYDYWGQGTQVTVSS,low polyreactivity
2,QVQLVESVGGLVQAGGSLRLSCAASRIFRGYAMGRYRQAPGKERELVAAIRRGGSTNYADSVKGRFTISRDNAKNSVYFQMNSLKPEDTEVYYCAADFYYDRDVDYWGQGTQVTVSS,high polyreactivity
3,QVQLVESVGGLVQAGGSLRLSCAAYGLTFRYYAMGWYRQSPGKESELDAAISSGGSTNYADSVKGRFTISRDNAKNTVYLQMNSLKPEDTAVYYCAAVSNSKWGRWGRAKYNYWGQGTQVTVSS,high polyreactivity
4,QVQLVESVGGLVQAGGSLRLSCAAYGYTFYSNAMGWYRQAPGKDRELVASIRSRGRSTYYADSVKGRFTISRDNAKNTVYLQMNSLKPEDTAVYYCAPLPNNPAVYAYDYWGEGTQVTVSS,low polyreactivity
5,QVQLVESVGGLVQAGGSLRLSCASSGFTFRFYVMGWSRQAPGKERELVAAITASGGTTYYADSVKGRFTISRDNAKNTVYLQMNSLKPEDTAVYYCNARYYYLYGYDYWGQGTQVTVSS,high polyreactivity
6,QVQLVESVGGLVQAGGSLRLSCASSGRIFAWYGMGSYRQAPGKEMELVAAINSGGRTYYEDSVKGRFTISRVNAKNTVYLQMNSLKPEDTAVYYCAAKLAAYGWRFHYGYWGQGTQVTVSS,high polyreactivity
7,QVQLVESVGGLVQAGGSLRLSCDATGNTFRIYAMGWYIHAPGKERQLVAAISQSGGSTYYADSVKGRFTISRDNAKNTVYLQMHSLKPEDTAVYYCNRRFAPFWGRDGYWGQGTQVTVSS,high polyreactivity
8,QVQLVESVGGLVQAGGSLRLSSAASGFTFKYYAMVWYRQAPGKERELVAAISWSGTRTYYADSVKGRVTISRDNAKYTVYLQMNSLKPEDTAVYYCDADFNGRYDYWGQGTQVTVSS,high polyreactivity
9,QVQLVESVGGLVQAGGSLRLSSAASGFTIVGNTMGWSRQAPGKERELVASINTNGGSTYYADSVKGRFTISRDNAKNTVYLQINSLKPEDTAVYYCNARSWYPYDYWGQGTQVTVSS,low polyreactivity
10,QVQLVESVGGLVQAGGSLRLSSAASGRTFRYYTMVWYTQAPGKEREFVAAISSTGGTYYADSVKGRFTISRDNAKNTVYLQMNSLKPEDTAVYYCAATFIQVVVNVQMYDYDYWGQGTQVTVSS,low polyreactivity
11,QVQLVESVGGLVQAGGSLRLTCAASGSIFKYYDMGWYRQAPGTERELVAAISSNGGRTYYADSVKGRFTISRDNAKNTDYLQMNSLKPEDTAVYYCARRFRRTGESEYDYWGQGTQVNVSS,high polyreactivity
12,QVQLVESVGGLVQAGGSLSLSCAASGIIFVPYAMVWYRQAPGKERELVAAISSGGSTDYADSVKGRFTISRDNAKNTVYLQMNSLKPEDTAVYYCNKYYRGIFKAHRDYWGQGTQVTLSS,low polyreactivity
13,QVQLVESVGGLVQAGGSLSLSCAASGSTLSDNAMGWYRQAPGKERELVAAIRRVGSTNYADSVKGRFTISRDNAKNTVYLQMNSLKPEDTAVYYCAVRHVWPWQGYDYWGQGTQVTVSS,low polyreactivity
14,QVQLVESVGGLVQAGGTLRLSCAASGSTFNINAMGWYRQAPGKERELVAAISWSGDITYYADSVKGRFTISRDNAKNTVYLQMNSLKPEDTAVYYCNTDDPVNYWYAEYDYWGQGTQVTVSS,low polyreactivity
15,QVQLVESVGGLVQAGGTLRLSCSASGSTFNVYAMGWYIQATGKERELVAAITRRGGSTYYADSVKGRFTISRDNAKNTVYLQMNSLKPEDTADYYFAARRRLDYYYYNYWGQGTQETVSS,high polyreactivity
16,QVQLVESVGGLVQAGGTLRLTCAASGSNFKAYAMRWYRQATGKERELVARIRYRGGSTYNADSVKGRFTISRDNAKNTVFLQMNSLKPEETAVYYCAARLSPYHTDRGDYLGQGTQVTVSS,high polyreactivity
17,QVQLVESVGGLVQAGGTLSLSCAASGFTFRNYAMGWYRQAPRKEREFVAAISRRGGSTYYADSVKGRITISRDNAKNTVYLQINSLKPEDSAVYYCATEPGKQNTYRMDYCGQGTQVTVSS,high polyreactivity
18,QVQLVESVGGLVQAGVSLRLSGAASGNTFVPYAMGWSRQAPGKESELVAAISLRGGSTYYADSVKGRFTISRDNAKNTVYLQMNSLKPEDTAVYYCAARTFYRPGLAGGYWGQGTQVTVAS,high polyreactivity
19,QVQLVESVGGLVQARGSLRLSCAASASIFPSYAMGWYIQAPGKERELVAVISWRGGSTYYADSVKGRFTISRDNAKNTVYLQMNRLKPEDTAVYYCAARSWDPKLSTYPFHFNYWGQGTQVTVSS,high polyreactivity
20,QVQLVESVGGLVQSGGSLRLSCAASGFIFVVYAMGSYRQAPGKERELVATISSGGGTYYADSVKGRFTISRDNAKNTVYLQMNSLKPEDTAVYYCAARRRRLYHFGGNNYWGQGTQVTVSS,high polyreactivity
